In US20120094914A1 (KYUSHU UNIVERSITY NATIONAL UNIVERSITY, published 2012) one finds Kd data, which are given here for one molecule.

The target in this experiment is T1, biotinylated HLA-G (monomer) refolded with human beta2 microglobulin and peptide … (human, biotinylated with BirA; site not stated).
T1 construct: also called wild-type HLA-G
The experiment can be described thus: SPR (BIAcore 2000), equilibrium response against LIR2 concentration, fitted binding isotherm; biotinylated HLA-G immobilised via streptavidin, BSA control cell subtracted. On the procedure: Surface plasmon resonance experiment was conducted for HLA-G and LILRB2 (LIR2), using BIAcore 2000° (BIAcore AB, St Albans, England). First, streptavidin was covalently immobilized on a laboratory sensor chip CM5 (BIAcore AB), and the biotinylated HLA-G and the negative control BSA were immobilized via the streptavidin. Then, LILRB2 (LIR2) dissolved in the running buffer HBS-EP (10 mM HEPES, pH 7.5, 150 mM sodium chloride, 3.4 mM EDTA, 0.005% Surfactant P20) was flown at 10 μL/min. The binding response at each concentration was calculated by subtracting the measured response in a control flow cell from the response in a sample flow cell. Binding constant (Kd) was obtained by Scatchard analysis, or by the nonlinear curve fitting of standard Langmuir binding isotherm, using ORIGIN 5 (Microcal Software).

B1: LILRB2 (LIR2) (receptor, UniProt Q8N423 24-220, looked up)
chain: GTIPKPTLWAEPDSVITQGSPVTLSCQGSLEAQEYRLYREKKSASWITRIRPELVKNGQFHIPSITWEHTGRYGCQYYSRARWSELSDPLVLVMTGAYPKPTLSAQPSPVVTSGGRVTLQCESQVAFGGFILCKEGEDEHPQCLNSQPHARGSSRAIFSVGPVSPNRRWSHRCYGYDLNSPYVWSSPSDLLELLVPG
notes: domain: ILT4D1D2; also called leukocyte Ig-like receptor B2; ILT4
On to B1, for which the Kd was found to be 4.1 µM.
